The supplement of paper PMC7877785
± gives the uncertainty stated by the source.

Experiment: self-splicing fitness, log relative to wild type (ln ratio); higher = more splicing; Tetrahymena group I intron in knt gene, E. coli kanamycin selection, DiMSum; sequences stand for … in CUCUCU…GGAGGGAAAAGUUAUCAGGCAUGCACCUGGUAGCUAGUCUUUAAACCAAUAGAUUGCAUCGGUUUAAAAGGCAAGACCGUCAAAUUGCGGGAAAGGGGUCAACAGCCGUUCAGUACCAAGUCUCAGGGGAAACUUUGAGAUGGCCUUGCAAAGGGUAUGGUAAUAAGCUGACGGACAUGGUCCUAACCACGCAGCCAAGUCCUAAGUCAACAGAUCUUCUGUUGAUAUGGAUGCAGUUCACAGACUAAAUGUCGGUCGGGGAAGAUGUAUUCUUCUCAUAAGAUAUAGUCGGACCUCUCCUUAAUGGGAGCUAGCGGAUGAAGUGAUGCAACACUGGAGCCGCUGGGAACUAAUUUGUAUGCGAAAGUAUAUUGAUUAGUUUUGGAGUACUCGUGGUCG
Summary of the method: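 Six replicate transformations of E. coli BL21(DE3) with a pET-22b(+) library were grown overnight at 37°C or 30°C. The library randomised all eight P1ex-region intron nucleotides, the intron lying in the knt kanamycin-resistance gene, and plates were LB agar with or without 25 μg/mL kanamycin plus 100 μg/mL carbenicillin, 50 μM IPTG and 0.2% rhamnose. Pooled colonies were amplicon-sequenced on an Illumina HiSeq 2500, and fitness is the DiMSum error-weighted combination of wild-type-normalised replicate fold changes, kanamycin versus none.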

Sequence	self-splicing fitness (ln) (30 °C)	self-splicing fitness (ln) (37 °C)
UUACAGCAAUAUUACGUGUC	-3.93 ± 0.17	-3.21 ± 0.21
ACAUAGCAAUAUUACGACCU	-0.446 ± 0.1	0.527 ± 0.13
UUUUAGCAAUAUUACGAAAC	–	-2.4 ± 0.49
UCCGAGCAAUAUUACGAUCU	-3.46 ± 0.35	-2.61 ± 0.39
CAGAAGCAAUAUUACGAUUU	-2.06 ± 0.096	-1.16 ± 0.11
UCCUAGCAAUAUUACGGCAC	–	-2.14 ± 0.24
UCGAAGCAAUAUUACGUAUU	-2.99 ± 0.18	-3.17 ± 0.31
UGCAAGCAAUAUUACGCAUU	-4.37 ± 0.27	-3.61 ± 0.26
GGCCAGCAAUAUUACGCUCC	-3.17 ± 0.24	-1.38 ± 0.24
GGGAAGCAAUAUUACGGUAG	-2.65 ± 0.2	-2.32 ± 0.24
UCCAAGCAAUAUUACGACCG	–	-1.38 ± 0.41
GCUCAGCAAUAUUACGUCCU	-1.16 ± 0.11	-0.818 ± 0.14
CCGGAGCAAUAUUACGGGGA	-2.97 ± 0.2	-2.73 ± 0.3
CCGAAGCAAUAUUACGCACG	-1.19 ± 0.074	-0.509 ± 0.092
UAAAAGCAAUAUUACGGUUU	-2.78 ± 0.095	-0.178 ± 0.091
UUAAAGCAAUAUUACGCCCU	-0.437 ± 0.11	0.33 ± 0.14
GAGCAGCAAUAUUACGCUGC	-3.72 ± 0.18	-3.06 ± 0.27
CGCAAGCAAUAUUACGUACC	-3.02 ± 0.17	-1.8 ± 0.17
GUACAGCAAUAUUACGCCUU	-1.23 ± 0.095	-0.531 ± 0.11
UGGGAGCAAUAUUACGGGAG	-2.83 ± 0.25	-2.94 ± 0.43
UUUAAGCAAUAUUACGGUUG	-2.33 ± 0.13	-1.76 ± 0.14
AGGAAGCAAUAUUACGAACA	-1.85 ± 0.14	-0.21 ± 0.2
GGUAAGCAAUAUUACGUACC	-3.79 ± 0.44	–
UGACAGCAAUAUUACGGGAG	-1.59 ± 0.062	-0.0844 ± 0.061
UAUGAGCAAUAUUACGGGGG	-3.16 ± 0.26	-2.31 ± 0.29
GGAUAGCAAUAUUACGCCAA	-2.37 ± 0.41	-1.01 ± 0.25

Sequence	self-splicing fitness (ln) (30 °C)	self-splicing fitness (ln) (37 °C)
CUGUAGCAAUAUUACGGCGG	-2.82 ± 0.27	-1.93 ± 0.32
UAUCAGCAAUAUUACGACUG	0.153 ± 0.078	0.512 ± 0.13
AGGCAGCAAUAUUACGCCUG	-1.78 ± 0.14	-0.748 ± 0.14
AAGCAGCAAUAUUACGACAU	-0.341 ± 0.011	-0.0663 ± 0.032
CCCAAGCAAUAUUACGACAC	-2.66 ± 0.2	-3.25 ± 0.43
CUAGAGCAAUAUUACGCCGA	–	-2.06 ± 0.43
GCCGAGCAAUAUUACGCGUC	-0.898 ± 0.14	-0.0598 ± 0.2
UGCAAGCAAUAUUACGAUUU	-1.16 ± 0.09	-1.05 ± 0.1
CUCGAGCAAUAUUACGGUAG	-2.62 ± 0.16	-0.386 ± 0.12
CCGGAGCAAUAUUACGCUUU	-4.14 ± 0.3	-2.47 ± 0.17
GAGUAGCAAUAUUACGCGCC	-1.42 ± 0.3	-0.361 ± 0.29
AUAGAGCAAUAUUACGCUGC	-2.86 ± 0.29	-1.05 ± 0.2
AAAGAGCAAUAUUACGCUGG	-4.07 ± 0.32	-1.89 ± 0.31
AGUCAGCAAUAUUACGUCAU	-0.181 ± 0.072	-0.133 ± 0.09
AUCGAGCAAUAUUACGCUAA	-3.48 ± 0.21	-2.88 ± 0.18
CGGUAGCAAUAUUACGGCGA	-2.69 ± 0.27	-2.13 ± 0.26
GAUCAGCAAUAUUACGCUAG	-1.15 ± 0.15	-0.723 ± 0.18
AAUAAGCAAUAUUACGACAU	-0.117 ± 0.012	0.0514 ± 0.032
AGGCAGCAAUAUUACGGUCG	-0.147 ± 0.079	-0.266 ± 0.1
ACAAAGCAAUAUUACGGGCA	-1.56 ± 0.069	-1.28 ± 0.056
CACAAGCAAUAUUACGGUGA	-3.09 ± 0.12	-0.931 ± 0.085
UGAGAGCAAUAUUACGUGUA	-2.07 ± 0.13	–
GAAUAGCAAUAUUACGUCGC	-0.78 ± 0.12	-0.38 ± 0.17
AAACAGCAAUAUUACGCCUC	-2.55 ± 0.15	-1.49 ± 0.15
GCUAAGCAAUAUUACGGGUU	-2.18 ± 0.09	-1.28 ± 0.089
GCAUAGCAAUAUUACGUUGG	-3.88 ± 0.22	-2.28 ± 0.18

Sequence	self-splicing fitness (ln) (30 °C)	self-splicing fitness (ln) (37 °C)
ACGUAGCAAUAUUACGCACG	-2.31 ± 0.2	-1.98 ± 0.19
AUCCAGCAAUAUUACGCUGG	-3.65 ± 0.19	-1.7 ± 0.16
CUCAAGCAAUAUUACGUGUU	-3.89 ± 0.23	-2.76 ± 0.22
ACUCAGCAAUAUUACGUAGC	-1.24 ± 0.069	-0.786 ± 0.11
CUGUAGCAAUAUUACGUGAA	–	-2.71 ± 0.29
GGCUAGCAAUAUUACGCAAA	-1.68 ± 0.18	-0.628 ± 0.16
CAAAAGCAAUAUUACGGUGA	-1.57 ± 0.096	-1.62 ± 0.1
AGUUAGCAAUAUUACGUAUU	-2.02 ± 0.1	-1.04 ± 0.11
GCAAAGCAAUAUUACGUCGC	-1.48 ± 0.16	-2.45 ± 0.27
AGUAAGCAAUAUUACGAAAU	-3.49 ± 0.21	-2.18 ± 0.17
GGCCAGCAAUAUUACGCGAU	-3.5 ± 0.14	-2.17 ± 0.14
AACUAGCAAUAUUACGGGGC	-3.61 ± 0.23	-3.1 ± 0.35
AAUGAGCAAUAUUACGGUAA	-1.61 ± 0.34	-2.24 ± 0.4
ACACAGCAAUAUUACGUUAA	-2.79 ± 0.13	-2.12 ± 0.12
AUAGAGCAAUAUUACGGUUU	-0.828 ± 0.071	-0.331 ± 0.098
ACACAGCAAUAUUACGUAAC	-3.39 ± 0.12	-1.81 ± 0.14
GUUUAGCAAUAUUACGAGGC	-2.48 ± 0.24	-2.45 ± 0.24
AAGUAGCAAUAUUACGUAAU	-2.31 ± 0.1	0.0619 ± 0.096
AACCAGCAAUAUUACGCUAG	-2.62 ± 0.082	-0.715 ± 0.08
GCCGAGCAAUAUUACGGAUA	-1.68 ± 0.14	-0.192 ± 0.13
UUCUAGCAAUAUUACGUGUU	-3.36 ± 0.17	-3.2 ± 0.19
CUCGAGCAAUAUUACGCUUC	-3.71 ± 0.3	-2.24 ± 0.29
UCAGAGCAAUAUUACGCCGA	-3.18 ± 0.33	-1.63 ± 0.23
CUGCAGCAAUAUUACGUGCA	-2.38 ± 0.13	-0.522 ± 0.1
AGUGAGCAAUAUUACGUCCU	0.0407 ± 0.17	0.233 ± 0.18
